In patent publication US20250154240A1 (CHIOME BIOSCIENCE, published 2025):

Key:
human CXCL1 protein [1] = biological target: T1, human CXCL1 protein (human, UniProt P09341 35-107); experiment: antigen-immobilized ELISA, HuCXCL1 on the plate, absorbance (upper right panel; chimeric label printed mh4A-7H10, taken as the 4A-2F7 panel)
T1 construct: also called HuCXCL1
T1 sequence: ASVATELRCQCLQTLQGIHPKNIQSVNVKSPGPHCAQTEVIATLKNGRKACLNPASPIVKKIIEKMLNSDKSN

human CXCL1 protein [2] = biological target: T1, human CXCL1 protein; experiment: cell-based or functional assay
human CXCL1 protein [3] = biological target: T1, human CXCL1 protein; experiment: antigen-immobilized ELISA, HuCXCL1 on the plate, absorbance (upper right panel; label printed mh4A-7H10, taken as the 4A-2F7 panel)
human CXCL1 protein [4] = biological target: T1, human CXCL1 protein; experiment: antigen-immobilized ELISA, HuCXCL1 on the plate, absorbance (lower right panel)
human CXCL1 protein [5] = biological target: T1, human CXCL1 protein; experiment: antigen-immobilized ELISA, HuCXCL1 on the plate, absorbance (lower left panel)
human CXCL3 = biological target: T2, human CXCL3 (human, UniProt P19876 35-107, limits assumed); experiment: blocking ELISA: HuCXCL3 immobilised, antibody 0 to 10 µg/mL, then biotin-labeled heparin 10 µg/mL (blocked ligand: heparin); panel HuCXCL3
T2 construct: also called HuCXCL3
T2 sequence (looked up): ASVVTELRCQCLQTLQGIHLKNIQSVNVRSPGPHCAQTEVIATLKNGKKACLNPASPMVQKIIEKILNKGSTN
Description: (§1) Thus, the effect of Hu5A-5E11 on the binding of CXCLs to GAG was evaluated by ELISA assay using plates on which the antigen (HuCXCL1 protein) used for immunization or HuCXCL2, 3 and 5 and MsCXCL1 and 2 proteins had been directly immobilized. CXCLs other than HuCXCL1 were purchased from PROTEINTECH and used. Biotin-labeled heparan sulfate and heparin were purchased from PG Research and used.
(§2) To 96-well plates, phosphate-buffered saline (PBS) containing 3 μg/mL of HuCXCL1, 2, 3 or 5 or MsCXCL1 or 10 μg/mL of MsCXCL2 was added in a volume of 50 μL per well, and the plates were allowed to stand overnight at 4° C. After removal of the antigen solutions, PBS containing 0.05% Tween-20 (hereinafter referred to as the blocking solution) was added to each well for blocking reaction, and the plates were allowed to stand at room temperature for 30 minutes. […] TMB (Dako) was added as a chromogenic substrate solution to cause color development, and 1 N sulfuric acid was added to stop the reaction, followed by measurement of absorbance at 450 nm. The binding rate of CXCLs to GAG was calculated as a ratio relative to the absorbance measured in the absence of the antibody, which was set to 100%.

mouse CXCL1 = biological target: T3, mouse CXCL1 (mouse, UniProt P12850 25-96, limits assumed); experiment: blocking ELISA: MsCXCL1 immobilised, antibody 0 to 10 µg/mL, then biotin-labeled heparin 10 µg/mL (blocked ligand: heparin); panel MsCXCL1
T3 construct: also called MsCXCL1
T3 sequence (looked up): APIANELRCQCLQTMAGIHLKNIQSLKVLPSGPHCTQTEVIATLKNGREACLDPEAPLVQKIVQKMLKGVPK
Description: as §1, §2

human CXCL2 = biological target: T4, human CXCL2 (human, UniProt P19875 35-107, limits assumed); experiment: blocking ELISA: HuCXCL2 immobilised, antibody 0 to 10 µg/mL, then biotin-labeled heparan sulfate 10 µg/mL (blocked ligand: heparan sulfate); panel HuCXCL2
T4 construct: also called HuCXCL2
T4 sequence (looked up): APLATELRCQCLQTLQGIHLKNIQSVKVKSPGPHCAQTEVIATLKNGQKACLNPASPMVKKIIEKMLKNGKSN
Description: as §1, §2

human CXCL5 = biological target: T5, human CXCL5 (human, UniProt P42830 37-114, limits assumed); experiment: blocking ELISA: HuCXCL5 immobilised, antibody 0 to 10 µg/mL, then biotin-labeled heparin 10 µg/mL (blocked ligand: heparin); panel HuCXCL5
T5 construct: also called HuCXCL5
T5 sequence (looked up): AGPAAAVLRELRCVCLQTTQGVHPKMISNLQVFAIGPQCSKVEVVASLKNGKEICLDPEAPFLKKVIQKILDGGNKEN
Description: as §1, §2

human CXCL1 protein [6] = biological target: T1, human CXCL1 protein; experiment: blocking ELISA: HuCXCL1 immobilised, antibody 0 to 10 µg/mL, then biotin-labeled heparin 10 µg/mL (blocked ligand: heparin); panel HuCXCL1
Description: as §1, §2

B1: Hu4A-2F7 VH1/VL1 (antibody, V domains shown)
VH: QVTLKESGPALVKPTQTLTLTCTFSGFSLSTSGMGVDWIRQPPGKALEWLAHIWWDDDKYYNPSLKSQLTISKDTSKNQVVLTMTNMDPVDTATYYCARSYGYDMDYYAMDYWGQGTTVTVSS
VL: DIQMTQSPSSLSASVGDRVTITCRASQEISGYLSWLQQKPGKAPKRLIYAASTLSSGVPSRFSGSGSGTDFTLTISSLQPEDFATYYCLQYASYPPWTFGGGTKVEIK
Human CXCL1 protein [1]
  EC50 (read off the curve): ~0.02 µg/mL

B2: Hu4A-2F7 VH1/VL2 (antibody, V domains shown)
VH: QVTLKESGPALVKPTQTLTLTCTFSGFSLSTSGMGVDWIRQPPGKALEWLAHIWWDDDKYYNPSLKSQLTISKDTSKNQVVLTMTNMDPVDTATYYCARSYGYDMDYYAMDYWGQGTTVTVSS
VL: DIQMTQSPSSLSASVGDRVTITCRASQEISGYLSWLQQKPGKAPKRLIYAASTLSSGVPSRFSGSGSGTDYTLTISSLQPEDFATYYCLQYASYPPWTFGGGTKVEIK
notes: Humanized antibody
Human CXCL1 protein [1]
  EC50 (read off the curve): ~0.02 µg/mL

B3: Hu4A-2F7 VH2/VL1 (antibody, V domains shown)
VH: QVTLKESGPALVKPTQTLTLTCTFSGFSLSTSGMGVDWIRQPPGKGLEWLAHIWWDDDKYYNPSLKSQLTISKDTSKNQVVLTMTNMDPVDTATYYCARSYGYDMDYYAMDYWGQGTTVTVSS
VL: DIQMTQSPSSLSASVGDRVTITCRASQEISGYLSWLQQKPGKAPKRLIYAASTLSSGVPSRFSGSGSGTDFTLTISSLQPEDFATYYCLQYASYPPWTFGGGTKVEIK
notes: Humanized antibody
Human CXCL1 protein [1]
  EC50 (read off the curve): ~0.02 µg/mL

B4: Hu4A-2F7 VH2/VL2 (antibody, V domains shown)
VH: QVTLKESGPALVKPTQTLTLTCTFSGFSLSTSGMGVDWIRQPPGKGLEWLAHIWWDDDKYYNPSLKSQLTISKDTSKNQVVLTMTNMDPVDTATYYCARSYGYDMDYYAMDYWGQGTTVTVSS
VL: DIQMTQSPSSLSASVGDRVTITCRASQEISGYLSWLQQKPGKAPKRLIYAASTLSSGVPSRFSGSGSGTDYTLTISSLQPEDFATYYCLQYASYPPWTFGGGTKVEIK
notes: Humanized antibody
Human CXCL1 protein [1]
  EC50 (read off the curve): ~0.02 µg/mL

B5: 4A-2F7 (antibody, V domains shown)
VH: QVTLKESGPGILKPSQTLSLTCSFSGFSLSTSGMGVDWIRQPSGKGLEWLAHIWWDDDKYYNPSLKSQLTISKDTSRNQVFLKITSVDTADTATYYCARSYGYDMDYYAMDYWGQGTSVTVSS
VL: DIQMTQSPSSLSASLGERVSLTCRASQEISGYLSWLQQKPDGTIKRLIYAASTLDSGVPKRFSGSRSGSDYSLTISSLESEDFADYYCLQYASYPPWTFGGGTKLEIK
Human CXCL1 protein [2]
  HuCXCL1 neutralizing activity EC50 (nM), Ca^2+ Flux assay: 4.8 nM

B6: mh4A-2F7_VH/VL1 (antibody, V domains shown)
VH: QVTLKESGPGILKPSQTLSLTCSFSGFSLSTSGMGVDWIRQPSGKGLEWLAHIWWDDDKYYNPSLKSQLTISKDTSRNQVFLKITSVDTADTATYYCARSYGYDMDYYAMDYWGQGTSVTVSS
VL: DIQMTQSPSSLSASLGERVSLTCRASQEISGYLSWLQQKPDGTIKRLIYAASTLSSGVPKRFSGSRSGSDYSLTISSLESEDFADYYCLQYASYPPWTFGGGTKLEIK
Human CXCL1 protein [3]
  EC50 (read off the curve): ~0.02 µg/mL

B7: 028-8-12 (antibody, V domains shown)
VH: EVQLLESGGGLVQPGGSLRLSCAASGFTFSELSMSWVRQAPGKGLEWVSAISGSGGSTYYADSVKGRFTISRDNSKNTLYLQMNSLRAEDTAVYYCAREGGRLEPYYYYYAMDVWGQGTPVTVSS
VL: DIQMTQSPSSLSASVGDRVTITCRASQSISDNLHWYQQKPGKAPKLLIYDASNLESGVPSRFSGSGSGTDFTLTINSLQPEDFATYYCQQYYSTPLTFGQGTKLEIK
notes: Unmodified human antibody obtained by the human ADLib technique; also called ADLib#028-08-12; ADLib #028-8-12
Human CXCL1 protein [2]
  HuCXCL1 neutralizing activity EC50 (nM), Ca^2+ Flux assay: 5.73 nM
Human CXCL1 protein [4]
  EC50 (read off the curve): ~0.04 µg/mL

B8: ADLib#028-8-12_VH1/VL1 (antibody, V domains shown)
VH: EVQLLESGGGLVQPGGSLRLSCAASGFTFSELSMSWVRQAPGKGLEWVSAISGSGGSTYYASSVKGRFTISRDNSKNTLYLQMNSLRAEDTAVYYCAREGGRLEPYYYYYAMDVWGQGTPVTVSS
VL: DIQMTQSPSSLSASVGDRVTITCRASQSISDNLHWYQQKPGKAPKLLIYDASNLESGVPSRFSGSGSGTDFTLTISSLQPEDFATYYCQQYYSTPLTFGQGTKLEIK
notes: Amino acid-modified human antibody; also called modified human antibody 028-8-12
Human CXCL1 protein [4]
  EC50 (read off the curve): ~0.04 µg/mL

B9: Hu5A-5E11 VH1/VL1 (antibody, V domains shown)
VH: QVQLVQSGAEVKKPGSSVKVSCKASGYAFSDYWMNWVRQAPGQGLEWIGQIYPGSGDTNYNAKFKGKGTITADKSTSTAYMELSSLRSEDTAVYYCARERDYDVAMDYWGQGTTVTVSS
VL: DIQMTQSPSSLSASVGDRVTITCKASQDINKYIAWFQQKPGKAPKLVIHYTSILQPGVPSRFSGSGSGTDYTFTISSLQPEDIATYYCLQYDNLPWTFGGGTKVEIK
notes: also called humanized Hu5A-5E11
Human CXCL1 protein [5]
  EC50 (read off the curve): ~0.02 µg/mL
Human CXCL3
  IC50 (read off the curve): ~0.5 µg/mL
Mouse CXCL1
  IC50 (read off the curve): ~0.6 µg/mL
Human CXCL2
  IC50 (read off the curve): ~0.8 µg/mL
Human CXCL5
  binding result: binds
Human CXCL1 protein [6]
  IC50 (read off the curve): ~0.6 µg/mL

B10: 5A-5E11 (antibody, V domains shown)
VH: QVQLQQSGAELVRPGSSVKISCKASGYAFSDYWMNWVKQRPGQGLEWIGQIYPGDGDTNYNGKFKGKGTLTADKSSSTAYMQLNSLTSEDSAVYFCARERDYDVAMDYWGQGTSVTVSS
VL: DIQMTQSPSSLSASLGGKVTITCKASQDINKYIAWFQHKPGKGPRLVIHYTSILQPGIPSRFSGVGSGRDYSFSIRNLEPEDIATYYCLQYDNLPWTFGGGTKLEIK
Human CXCL1 protein [2]
  HuCXCL1 neutralizing activity EC50 (nM), Ca^2+ Flux assay: 3.96 nM

B11: 1A-7H10 (antibody, V domains shown)
VH: QVQLKESGPVLVAPSQSLSITCSVSGFSSTTYGVHWVRQPPGQGLEWLGVIWAGGSTNYNSALMSRLSISKDNSKSQVFLKMNSLQTDDTAMYYCATQYHYPFAYWGQGTLVTVSA
VL: NIVMTQSPKSMSMSVGERVTLSCKASENVGIYVSWYQQKPEQSPKLMIYGASNRNTGVPDRFTGSGSATDFTLTISSVQAEDLADYYCGQSYSYPLTFGAGTKLELK
Human CXCL1 protein [2]
  HuCXCL1 neutralizing activity EC50 (nM), Ca^2+ Flux assay: 6.24 nM
